# Target: Mouse synaptosomes (BoNT/A acceptor on a mouse synaptosome preparation)
substance,measurement,value
Active BoNT/A (botulinum neurotoxin type A) (from UniProt P0DPI0 2-1296),maximum percent inhibition,78%
